Consider one substance from paper PMC2855648.

Common to all, as to assay: initial velocity, spectrophotometric DTP/DTNB thiol assay
Common to all, as to format: biochemical, Escherichia coli

For data set [1], the system named is NC[C@H]1O[C@H](O[C@H]2[C@H](O)[C@@H](O[C@H]3O[C@H](CO)[C@@H](O)[C@H](N)[C@H]3O)[C@H](N)C[C@@H]2N)[C@H](N)[C@@H](O)[C@@H]1O. To be noted: fixed saturating AcCoA, optimum pH 5.6, room temperature.
Data set [2] relates to CC(=O)SCCNC(=O)CCNC(=O)[C@H](O)C(C)(C)COP(=O)(O)OP(=O)(O)OC[C@H]1O[C@@H](n2cnc3c(N)ncnc32)[C@H](O)[C@@H]1OP(=O)(O)O. To be noted: fixed saturating kanamycin B, optimum pH 5.6, room temperature.
For data set [3], the system named is NC[C@@H]1O[C@H](O[C@H]2[C@@H](O)[C@H](O[C@@H]3[C@@H](O)[C@H](N)C[C@H](N)[C@H]3O[C@H]3O[C@H](CN)[C@@H](O)[C@H](O)[C@H]3N)O[C@@H]2CO)[C@H](N)[C@@H](O)[C@@H]1O. To be noted: fixed saturating AcCoA, optimum pH 5.6, room temperature.

With “AAC(6′)-Ib-wt (Escherichia coli; R102W/Y179D)”, in data set [1], the Km amounted to 0.27 ± 0.01 µM, the kcat came to 2.27 ± 0.05 s⁻¹ and the kcat/Km came to 8.38e+06 M⁻¹ s⁻¹. In addition, in data set [2], the Michaelis-Menten constant (Km) came to 35 ± 2 µM, the kcat worked out at 2.32 ± 0.0667 s⁻¹ and the kcat/Km came to 66700 M⁻¹ s⁻¹. Further, in data set [3], the Km was found to be 20 ± 1 µM, the kcat stood at 3.08 ± 0.05 s⁻¹ and the kcat/Km is 150000 M⁻¹ s⁻¹.
